Assay results reported in publication PMC12947556.

Assays:
[1] = target: ([H3.2]·[H3.2K4me3K27me3]) heterotypic nucleosome (UniProt Q71DI3); assay: Captify Luminex bead-based binding assay; GST-PtSHL titrated to a multiplex panel of PTM-defined homotypic and heterotypic nucleosomes; median fluorescence intensity; EC50^rel
[2] = target: ([H3K4me3K27me3]2) homotypic nucleosome; assay: as above

GST-PtSHL BAH-PHD (domain or fragment)
fold preference over ([H3.2K4me3]·[H3.2K27me3]) or its comprising PTMs [1]: > 350 fold | fold preference over nucleosomes with each comprising PTM [2]: > 150 fold
